In publication PMC9439264 (Nature Communications, 2022):

Columns and labels:
[1] = target: T1, HA ectodomain of A/California/04/2009 (H1N1), recombinant (Influenza A virus A/California/04/2009 …, strain); experiment: SEC; conditions: both partners purified
T1 construct: source: baculovirus (pAcGP67B), H5 insect cells, supernatant purified with Ni-NTA

[2] = target: T2, HAhr^CA (head region of CA4/2009 HA, degraded HA monomer in the crystal) (Influenza A virus A/California/04/2009 …, strain); experiment: crystal structure; conditions: both partners purified
T2 chain: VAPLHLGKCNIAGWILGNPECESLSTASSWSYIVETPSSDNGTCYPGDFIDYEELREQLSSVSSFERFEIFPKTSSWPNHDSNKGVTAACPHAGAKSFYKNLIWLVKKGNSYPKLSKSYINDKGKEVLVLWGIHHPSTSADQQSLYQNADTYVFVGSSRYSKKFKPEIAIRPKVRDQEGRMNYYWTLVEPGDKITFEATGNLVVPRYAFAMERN

B1: 12H5 Fab (mouse antibody) (Fab, V domains shown)
VH: QIQLVQSGPELKKPGETVRISCKASGYTFTKNGMNWVQQAPGKGLKWVGWINTYTGEPSYADDFKGRFAFSLETSASTAYLQINNLKNEDMAAYFCARMVRDAMDFWGQGTSVTVSS
VL: DIVLTQSPASLAVSLGQRATISCKASQSVDFDGYNYLNWYQQKPGQPPKLLIYAASNLESGIPARFSGSGSGTDFTLNIHPVEEEDAATYFCQQSNEDPYTFGGGTKLEIK
notes: source: papain digestion of mAb 12H5 (mouse ascites, protein A), purified with DEAE-5PW
binding result [1]: binds | binding result [2]: binds
